Consider two molecules from US7662384B2, “Use of anti-α5β1 antibodies to inhibit cancer cell proliferation” (Facet Biotech Corporation, priority 2004, dated 2010).

Assay [1] concerns the target T1, α5β1 integrin on the cell surface of A498 (Homo sapiens, UniProt P05556+P08648).
T1 construct: endogenous in cells
Nature of the assay: FACS analysis of cancer cell line with IIA1. It is filed as binding. The settings on record: A498 (renal); IIA1 10 μg/ml; background MFI ~5. The method, then:
(§1) Cells were removed with 5 mM EDTA in Tris-HCl (pH 8.0) and blocked by centrifugation in Hank's balanced salt solution containing 3% heat inactivated FBS, 1% normal goat serum (Sigma) and 1% BSA at 4° C. for 5 minutes. Cells were incubated for 30-60 minutes at 4° C. with the mouse anti-α5β1 antibody, IIA1 (10 μg/ml) in FACS buffer (PBS containing 0.1% BSA). Excess monoclonal antibody was removed by centrifugation and cells were washed two times with FACS buffer prior to resuspending in PE-anti-mouse IgG (H+ L) antibody (Southern Biotech, 1:400 dilution) for 30-60 minutes at 4° C. After washing cells were re-suspended in FACS buffer containing propidium iodide (1 μg/ml). Mean fluorescence intensity (MFI) was measured on a FACSCalibur (Becton Dickinson). Background MFI was ˜5.
In general terms: Flow cytometry measures light scatter and fluorescence of single cells or particles in a stream.

The target of assay [2] is T2, α5β1 integrin on the cell surface of C32 (Homo sapiens, UniProt P05556+P08648).
T2 construct: endogenous in cells
T2 sequence (P08648 42-894 limits assumed): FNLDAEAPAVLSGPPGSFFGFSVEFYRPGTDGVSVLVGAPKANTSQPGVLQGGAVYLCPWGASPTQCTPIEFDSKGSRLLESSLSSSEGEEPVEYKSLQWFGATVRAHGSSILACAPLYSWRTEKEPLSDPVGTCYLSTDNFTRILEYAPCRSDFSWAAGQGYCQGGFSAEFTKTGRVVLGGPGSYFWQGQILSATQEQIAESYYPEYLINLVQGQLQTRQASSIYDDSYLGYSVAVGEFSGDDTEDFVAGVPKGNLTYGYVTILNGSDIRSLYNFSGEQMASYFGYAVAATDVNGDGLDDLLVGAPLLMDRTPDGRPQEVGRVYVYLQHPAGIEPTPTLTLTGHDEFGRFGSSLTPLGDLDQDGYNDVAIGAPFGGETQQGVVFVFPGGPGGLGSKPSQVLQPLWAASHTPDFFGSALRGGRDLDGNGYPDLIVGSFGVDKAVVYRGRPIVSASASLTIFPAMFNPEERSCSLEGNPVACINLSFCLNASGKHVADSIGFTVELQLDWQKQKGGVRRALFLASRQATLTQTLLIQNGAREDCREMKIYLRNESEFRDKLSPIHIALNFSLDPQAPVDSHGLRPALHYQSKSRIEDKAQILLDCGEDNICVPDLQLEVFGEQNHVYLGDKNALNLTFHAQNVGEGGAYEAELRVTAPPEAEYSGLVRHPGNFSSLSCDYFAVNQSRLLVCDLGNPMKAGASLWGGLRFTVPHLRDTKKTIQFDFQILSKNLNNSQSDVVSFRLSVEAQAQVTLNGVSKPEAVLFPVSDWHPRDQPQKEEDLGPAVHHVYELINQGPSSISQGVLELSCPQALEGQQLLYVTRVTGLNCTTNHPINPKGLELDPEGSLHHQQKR
T2 sequence (P08648 895-1049 limits assumed): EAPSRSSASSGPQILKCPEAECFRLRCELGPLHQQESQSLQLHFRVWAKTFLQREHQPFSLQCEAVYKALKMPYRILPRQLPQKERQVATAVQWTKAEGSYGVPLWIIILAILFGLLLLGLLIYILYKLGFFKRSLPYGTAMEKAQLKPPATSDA
T2 sequence (P05556 21-798): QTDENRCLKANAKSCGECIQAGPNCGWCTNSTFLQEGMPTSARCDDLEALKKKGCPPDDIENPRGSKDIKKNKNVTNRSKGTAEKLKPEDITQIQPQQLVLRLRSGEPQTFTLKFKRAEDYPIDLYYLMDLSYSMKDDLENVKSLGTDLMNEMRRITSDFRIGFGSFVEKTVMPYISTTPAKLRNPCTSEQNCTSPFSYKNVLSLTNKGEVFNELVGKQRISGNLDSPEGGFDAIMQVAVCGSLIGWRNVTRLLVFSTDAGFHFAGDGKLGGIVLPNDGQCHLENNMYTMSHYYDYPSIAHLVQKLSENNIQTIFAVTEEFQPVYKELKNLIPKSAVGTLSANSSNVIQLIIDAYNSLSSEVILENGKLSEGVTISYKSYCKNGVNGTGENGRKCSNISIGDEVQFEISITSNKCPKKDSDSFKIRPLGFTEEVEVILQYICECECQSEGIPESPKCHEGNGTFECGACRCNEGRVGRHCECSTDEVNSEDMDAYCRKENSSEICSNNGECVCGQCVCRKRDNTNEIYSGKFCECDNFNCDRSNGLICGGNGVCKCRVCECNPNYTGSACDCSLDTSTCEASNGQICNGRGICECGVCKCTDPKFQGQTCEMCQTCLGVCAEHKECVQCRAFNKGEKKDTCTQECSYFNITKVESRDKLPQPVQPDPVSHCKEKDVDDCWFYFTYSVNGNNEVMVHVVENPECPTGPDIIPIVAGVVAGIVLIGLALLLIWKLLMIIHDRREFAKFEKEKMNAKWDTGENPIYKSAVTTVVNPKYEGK
As to the kind of experiment: FACS analysis of cancer cell line with IIA1. The settings on record: C32 (melanoma); IIA1 10 μg/ml; background MFI ~5. It counts as binding. The method, then:
as §1

Assay [3] addresses T3, α5β1 integrin on the cell surface of SW839 (Homo sapiens, UniProt P05556+P08648).
T3 construct: endogenous in cells
Nature of the assay: FACS analysis of cancer cell line with IIA1. It counts as binding. The settings on record: SW839 (renal); IIA1 10 μg/ml; background MFI ~5. The method, then:
as §1

Assay [4] deals with T4, α5β1 sites on monocytes (Homo sapiens, UniProt P05556+P08648).
T4 construct: endogenous in cells; host or cells: CD14+ monocytes in peripheral blood of human patients
T4 sequence (P08648 42-894 limits assumed): as the sequence (P08648 42-894 limits assumed) above
T4 sequence (P08648 895-1049 limits assumed): as the sequence (P08648 895-1049 limits assumed) above
T4 sequence (P05556 21-798): as the sequence (P05556 21-798) above
Nature of the assay: Phase I study: saturation of α5β1 sites on monocytes by flow cytometry. It counts as in vivo. The settings on record: 10 mg/kg dosage. As for the experimental part:
The integrin α5β1 is also expressed on monocytes in the peripheral blood. To determine the dose at which the α5β1 sites on these circulating cells is saturated by M200, samples of peripheral blood were taken before the first dose on Study Day 1, Study Days 2 and 8, just before each subsequent dose, and on Study Day 43. The saturation of α5β1 sites on monocytes was determined by flow cytometry. The monocytes were identified by using antibodies to CD14. Bound M200 on the monocyte surface was detected by adding labeled anti-human IgG4. Unoccupied (free) α5β1 on the cells was detected by adding labeled IIA1. The percentages of monocytes and lymphocytes expressing α5β1 was also assessed.

T3 sequence (P08648 42-894 limits assumed): as the sequence (P08648 42-894 limits assumed) above
T3 sequence (P08648 895-1049 limits assumed): as the sequence (P08648 895-1049 limits assumed) above
T3 sequence (P05556 21-798): as the sequence (P05556 21-798) above
T1 sequence (P08648 42-894 limits assumed): as the sequence (P08648 42-894 limits assumed) above
T1 sequence (P08648 895-1049 limits assumed): as the sequence (P08648 895-1049 limits assumed) above
T1 sequence (P05556 21-798): as the sequence (P05556 21-798) above

B1: IIA1: parent mouse IgG1 class anti-α5β1 antibody shown to inhibit α5β1 integrin binding to fibronectin (antibody, V domains shown)
VH: MAVLGLLLCLVTFPSCVLSQVQLKESGPGLVAPSQSLSITCTISGFSLTDYGVHWVRQPPGKGLEWLVVIWSDGSSTYNSALKSRMTIRKDNSKSQVFLIMNSLQTDDSAMYYCARHGTYYGMTTTGDALDYWGQGTSVTVSS
VL: MDFQVQIFSFLLISASVIMSRGQIVLTQSPAIMSASLGERVTMTCTASSSVSSNYLHWYQQKPGSAPNLWIYSTSNLASGVPARFSGSGSGTSYSLTISSMEAEDAATYYCHQYLRSPPTFGGGTKLEIK
modifications: mus muscalus
For the molecule B1, the results for the “α5β1 Surface Expression (MFI)” value in assay [1], in assay [2] and in assay [3] were 67.1 MFI, 5.7 MFI and 65.8 MFI, respectively.

B2: M200: chimeric IgG4 anti-α5β1 antibody derived from IIA1; generic name volociximab (antibody, V domains shown)
VH: B1 VH
VL: MDFQVQIFSFLLISASVIMSRGQIVLTQSPAIMSASLGERVTMTCTASSSVSSNYLHWYQQKPGSAPNLWIYSTSNLASGVPARFSGSGSGTSYSLTISSMEAEDAATYYCHQYLRSPPTFGGGTKLEIKDMSVDMSV
modifications: chimeric antibody
notes: chimeric IgG4 anti-α5β1 antibody derived from IIA1; generic name volociximab
As for B2, in assay [4], the monocyte saturation entry is listed as “monocyte saturation”.
